Patent US20110124071A1, “METHODS AND COMPOSITIONS FOR PRODUCING HYDROCARBONS” (priority 2009, published 2011)

Experiments:
E. coli MG1655 = experiment: Coexpression of putative decarbonylase with S. elongatus PCC7942 orf1594 in E. coli, GC-MS of extracts; format: cell-based; details: coexpressed with S. elongatus PCC7942 orf1594 in E. coli MG1655, M9 minimal media
Protocol: After a 1 μl splitless injection (inlet temperature held at 300° C.) onto the GC/MS column, the oven was held at 100° C. for 3 mins. The temperature was ramped up to 320° C. at a rate of 20° C./min. The oven was held at 320° C. for an additional 5 min. The flow rate of the carrier gas helium was 1.3 ml/min. The MS quadrapole scanned from 50 to 550 m/z. Retention times and fragmentation patterns of product peaks were compared with authentic references to confirm peak identity.
The genomic DNA encoding Synechococcus elongatus PCC7942 orf1594 (YP—400611; putative aldehyde-generating enzyme) (SEQ ID NO: 65) was amplified and cloned into the NcoI and EcoRI sites of vector OP-80 (pCL1920 derivative) under the control of the Ptrc promoter. The resulting construct (“OP80-PCC7942—1594”) was transformed into E. coli MG1655 and the cells were grown at 37° C. in M9 minimal media with 1% (w/v) glucose as carbon source and supplemented with 100 μg/ml spectinomycin. When the culture reached OD600 of 0.8-1.0, it was induced with 1 mM IPTG and cells were grown for an additional 18-20 h at 37° C. Cells from 0.5 ml of culture were extracted with 0.5 ml of ethyl acetate. After sonication for 60 min, the sample was centrifuged at 15,000 rpm for 5 min. The solvent layer was analyzed by GC-MS as described in Example 1.
The genomic DNA encoding Synechococcus elongatus PCC7942 orf1593 (YP—400610; putative decarbonylase) (SEQ ID NO: 1) was amplified and cloned into the NdeI and XhoI sites of vector OP-183 (pACYC derivative) under the control of the Ptrc promoter. The resulting construct was cotransformed with OP80-PCC7942—1594 into E. coli MG1655 and the cells were grown at 37° C. in M9 minimal media supplemented with 100 μg/ml spectinomycin and 100 μg/ml carbenicillin. The cells were cultured and extracted as in Example 3 and analyzed by GC-MS as described in Example 1. […]

[1] = system: E. coli MG1655 ΔfadD lacZ::Ptrc-′tesA; experiment: Heterologous expression in a fatty aldehyde-producing E. coli strain with MSMEG—5739, GC-MS; format: cell-based; details: decarbonylase coexpressed with carboxylic acid reductase MSMEG—5739
[2] = In vitro decarbonylation enzyme assay with purified Npun02004178 protein, GC/MS; format: biochemical; details: 30 μM protein, 200 μM octadecanal, spinach ferredoxin, ferredoxin reductase, 1 mM NADPH, 37° C., 2 h
Protocol: The genomic DNA encoding N. punctiforme PCC73102 Npun02004178 (SEQ ID NO: 5) was cloned into the NdeI and XhoI sites of vector pET-15b under the control of the T7 promoter. The resulting Npun02004178 protein contained an N-terminal His-tag. An E. coli BL21 strain (DE3) (Invitrogen) was transformed with the plasmid by routine chemical transformation techniques. Protein expression was carried out by first inoculating a colony of the E. coli strain in 5 ml of LB media supplemented with 100 mg/L of carbenicillin and shaken overnight at 37° C. to produce a starter culture. This starter cultures was used to inoculate 0.5 L of LB media supplemented with 100 mg/L of carbenecillin. […] Protein concentration was determined using the Bradford assay (Biorad). […]
To test Npun02004178 protein for decarbonylation activity, the following enzyme assays were set-up. […] Samples were analyzed by GC/MS using the following parameters: run time: 13.13 min; column: HP-5-MS Part No. 19091S-433E (length of 30 meters; I.D.: 0.25 mm narrowbore; film: 0.25ìM); inject: 1ìl Agilent 6850 inlet; inlet: 300 C splitless; carrier gas: helium; flow: 1.3 ml/min; oven temp: 75° C. hold 5 min, 320 at 40° C./min, 320 hold 2 min; det: Agilent 5975B VL MSD; det. temp: 330° C.; scan: 50-550 M/Z. Heptadecane from Sigma was used as an authentic reference for determining compound retention time and fragmentation pattern.

B1: Npun02004178: Nostoc punctiforme PCC73102 putative decarbonylase (SEQ ID NO: 5) (protein)
chain: MQQLTDQSKELDFKSETYKDAYSRINAIVIEGEQEAHENYITLAQLLPESHDELIRLSKMESRHKKGFEACGRNLAVTPDLQFAKEFFSGLHQNFQTAAAEGKVVTCLLIQSLIIECFAIAAYNIYIPVADDFARKITEGVVKEEYSHLNFGEVWLKEHFAESKAELELANRQNLPIVWKMLNQVEGDAHTMAMEKDALVEDFMIQYGEALSNIGFSTRDIMRLSAYGLIGA
modifications: Nostoc punctiforme
For B1, the “fatty aldehyde decarbonylase activity (alkane/alkene production)” value (E. coli MG1655) was “active fatty aldehyde decarbonylase”, the “conversion of fatty aldehydes provided by MSMEG—5739 to alkanes” value [1] was “produced tridecane, pentadecene and pentadecane” and the “in-vitro conversion of octadecanal to heptadecane” value [2] was “in-vitro conversion of octadecanal to heptadecane was observed”.
